Results on 1 substance are retold here after patent US20020177689A1.

The target of the assay is Rhodamine green-Gly-Gly-dPhe-Leu-Arg-Arg-Val-Cys(QSY 7)-betaAla-NH2.

“recombinant human neutral endopeptidase (NEP) (from UniProt P08473) (enzyme)”: the Km (steady state kinetics, FRET cleavage assay) was 8 µM.
